Measurements from patent US20220372125A1 (ASLAN PHARMACEUTICALS PTE, published 2022).
Values belong to the binder of their own block, whether it stands above or below them.

What was measured:
[1] = target: T1, Mammalian expressed extracellular human RON protein (Gly25 to Thr957) with His-tag (human, UniProt Q04912 25-957); experiment: KinExA, RON-HIS
T1 construct: Expressed in ExpiCHO cells, purified on nickel; Position of the His-tag is told inconsistently; Written as one chain; also called RON ECD; RON ECD antigen; not shown: His-tag
T1 sequence: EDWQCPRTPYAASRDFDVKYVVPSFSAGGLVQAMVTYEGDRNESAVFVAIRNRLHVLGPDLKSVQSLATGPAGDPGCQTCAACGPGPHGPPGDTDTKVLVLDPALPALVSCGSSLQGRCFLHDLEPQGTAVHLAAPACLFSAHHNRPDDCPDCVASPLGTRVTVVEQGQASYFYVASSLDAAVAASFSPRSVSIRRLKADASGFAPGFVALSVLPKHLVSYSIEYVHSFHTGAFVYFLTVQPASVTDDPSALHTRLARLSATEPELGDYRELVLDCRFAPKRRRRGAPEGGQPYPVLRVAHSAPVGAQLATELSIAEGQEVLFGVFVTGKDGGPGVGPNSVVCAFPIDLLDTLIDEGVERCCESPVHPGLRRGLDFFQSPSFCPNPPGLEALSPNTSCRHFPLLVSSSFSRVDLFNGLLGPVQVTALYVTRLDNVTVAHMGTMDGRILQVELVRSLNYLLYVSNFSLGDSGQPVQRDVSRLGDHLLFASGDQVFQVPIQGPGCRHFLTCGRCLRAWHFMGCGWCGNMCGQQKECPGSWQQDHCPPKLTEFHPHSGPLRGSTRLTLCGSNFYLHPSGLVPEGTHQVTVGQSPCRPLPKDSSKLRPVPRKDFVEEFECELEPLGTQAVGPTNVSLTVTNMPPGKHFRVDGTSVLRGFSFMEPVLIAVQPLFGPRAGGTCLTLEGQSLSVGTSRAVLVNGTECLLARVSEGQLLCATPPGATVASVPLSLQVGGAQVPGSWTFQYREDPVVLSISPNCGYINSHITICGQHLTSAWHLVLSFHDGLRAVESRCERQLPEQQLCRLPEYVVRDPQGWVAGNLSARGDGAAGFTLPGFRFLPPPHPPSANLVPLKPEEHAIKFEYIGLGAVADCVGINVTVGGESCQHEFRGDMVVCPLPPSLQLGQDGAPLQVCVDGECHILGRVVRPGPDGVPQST

[2] = target: T1, Mammalian expressed extracellular human …; experiment: KinExA, RON-HIS; 95% Confidence Level 167.21 pM to 304.60 pM
Experimental: (§1) Mammalian produced recombinant extracellular His-tag RON protein was used for affinity measurements. Affinity determinations were carried out in the fixed antigen format. Antibodies were titrated as two-fold dilutions into a fixed concentration of RON antigen. RON protein was detected using mouse monoclonal to 6×His-Tag (Dylight@650, Thermo Fisher). All affinity measurements were carried out using the KinExa 4000 (Sapidyne Instruments).

[3] = target: T1, Mammalian expressed extracellular human …; experiment: KinExA, apparent Kd, column 'Kd by Kinexa (nM)' [continued]
Experimental: Titration curves were generated using indicated fixed concentrations of extracellular RON antigens measured by calibration free concentration analysis (CFCA). Increasing concentrations of RON antibodies were titrated for measurement of binding. Apparent Kd values were determined from an average of the two curves and plotted in table shown.
This limitation of the SPR method for highly avid antibodies has been described previously and the use of kinetic exclusion assay has been proposed as a way to overcome this limitation allowing measurements in the sub nanomolar range. We employed the Kinetic Exclusion assay (KinEXa) method to measure the Kd values of all of the new antibodies using a fixed concentration of the recombinant mammalian expressed protein as the target antigen and a twelve-point dilution curve of each antibody. We dropped antibody 9F6, in this assay as it seemed less avid than the other antibodies in preliminary SPR binding assays. The remaining seven antibodies gave exactly accurate results in duplicate analysis (FIG. 6).
as §1

[4] = target: T1, Mammalian expressed extracellular human …; experiment: KinExA, RON-HIS; 95% Confidence Level 9.65 x 105 to 1.60 x 106
[5] = target: T1, Mammalian expressed extracellular human …; experiment: KinExA, RON-HIS; 95% Confidence Level 2.30 x 106 to 2.74 x 106
[6] = target: T1, Mammalian expressed extracellular human …; experiment: KinExA, RON-HIS; 95% Confidence Level 92.36 pM to 219.67 pM
Experimental: as §1

[7] = target: T1, Mammalian expressed extracellular human …; experiment: KinExA, RON-HIS; 95% Confidence Level 1.05 x 105 to 1.61 x 105
[8] = target: T1, Mammalian expressed extracellular human …; experiment: KinExA, RON-HIS; 95% Confidence Level 1.74 nM to 4.11 nM
Experimental: as §1

[9] = target: T1, Mammalian expressed extracellular human …; experiment: KinExA, RON-HIS; 95% Confidence Level 2.24 x 106 to 4.45 x 106
[10] = target: RON (Macrophage stimulating protein receptor), full length, on cells (human, UniProt Q04912 25-1400); experiment: cell-based or functional assay
[11] = target: T1, Mammalian expressed extracellular human …; experiment: KinExA, RON-HIS; 95% Confidence Level 448.10 pM to 200.01 pM
Experimental: as §1

[12] = target: T1, Mammalian expressed extracellular human …; experiment: KinExA, RON-HIS; 95% Confidence Level 8.64 nM to 18.70 nM
Experimental: as §1

[13] = target: T1, Mammalian expressed extracellular human …; experiment: KinExA, RON-HIS; 95% Confidence Level 2.68 x 105 to 3.10 x 105
[14] = target: T1, Mammalian expressed extracellular human …; experiment: KinExA, RON-HIS; 95% Confidence Level 2.55 x 105 to 2.81 x 105
[15] = target: T1, Mammalian expressed extracellular human …; experiment: KinExA, RON-HIS; 95% Confidence Level 5.94 nM to 11.84 nM
Experimental: as §1

koff [1]: 0.000286 s⁻¹ | Kd [2]: 0.23 nM | Kd [3]: 0.23 nM | kon [4]: 1.25e+06 M⁻¹ s⁻¹
B1: 7H11 (antibody, V domains shown)
VH: EVKLEQSGPELVKPGASVKISCKASGYTFTDYNMHWVRQPPGQSLEWIGFIYPYNGNSGYNPNFKTKATLTMDISSSTAYMEVRNLTSEDSATYFCASLYYLGYFDVWGAGTTVTVSS
VL: DIVLTQSPVSLAVSLGQRATISCRASKSVSTSAYNFMHWYQQKPGQPPKLLIYLASNLESGVPARLSGSGSGTDFTLNIHPVEEEDAATYYCQHSRELPYTFGGGTKLEIKR
notes: Mouse monoclonal antibody from a hybridoma; kappa light chain; also called Antibody 7H11; anti-RON antibody 7H11

koff [1]: 0.000358 s⁻¹ | kon [5]: 2.44e+06 M⁻¹ s⁻¹ | Kd [3]: 0.15 nM | Kd [6]: 0.146 nM
B2: 3F8 (antibody, V domains shown)
VH: EVKLQESGGGLVQPGRSLKLSCVASGFTFSSFWMHWVRQSPEKGLEWVAEIRLKSNNYATHYAESVKGRFTISRDDSKSSVHLQMNNLRTEDTGIYYCIPPYYYTVDYWGQGTSVTVSS
VL: DIVLTQTPKVMSTSVGDRVSVTCKASQNVNTNVAWYQQKPGQSPKALIYSASSRYSGVPDRFTGSGSGTDFTLTISNVQSEDLADYFCQQYNTYPLTFAAGTKLELK
notes: Mouse monoclonal antibody from a hybridoma; kappa light chain; also called Antibody 3F8; anti-RON antibody 3F8

koff [1]: 0.00353 s⁻¹ | kon [7]: 129000 M⁻¹ s⁻¹ | Kd [8]: 2.74 nM | Kd [3]: 2.7 nM
B3: 9F2 (antibody, V domains shown)
VH: QVKLQQSGPGLVAPSQSLSITCTVSGFSLTSYGVHWVRQPPGKGLEWLGVIWAGGTTNYNSALMSRLSISKDNSKSQVFLKMNSLQTDDTAMYYCASYDYDGYFDVWGAGTTVTVSS
VL: DIVLTQTTAIMSASPGEKVTMTCSASSSVSYIHWYQQKSSTSPKLWIYDTSKLASGVPGRFSGSGSGNSYSLTISSMEAEDVATYYCFQGNKYPLTFGAGTKLELK
notes: Mouse monoclonal antibody from a hybridoma; kappa light chain; also called Antibody 9F2; anti-RON antibody 9F2

koff [1]: 0.000968 s⁻¹ | kon [9]: 3.18e+06 M⁻¹ s⁻¹ | IC50 of inhibition of MSP induced ERK phosphorylation (AlphaLISA SureFire p-ERK, T47D cells) [10]: 68 nM | Kd [11]: 0.305 nM | Kd [3]: 0.3 nM
B4: 3G4 (antibody, V domains shown)
VH: EVQLQESGPELVKPGTSVRISCKASGYTFTSYYMHWVKQRPGQGLEWIGYIYPGNVNTKYNEKFKGKATLTADKSSSTAYMQLSSLTSEDSAVYFCARLGYYRYGGAMDYWGQGTAVTVSS
VL: DIVLTQTPAILSVSPGERVSFSCRASQSIGTSIHWYQQRTNGSPRLLIKYASESISGIPSRFSGSGSGTDFTLRINSVESEDLADYYCQQSDSWPTTFGGGTKLEIKR
notes: Mouse monoclonal antibody from a hybridoma (supernatant or purified); kappa light chain; also called Antibody 3G4; anti-RON antibody 3G4

B5: chimeric 10G1 (mouse Fab with human Fc backbone) (antibody, V domains shown)
VH: EVKLEQSGGGLVQPGGSRKLSCAASGFTFSSFGMHWVRQAPEKGLEWVAYISGGSGTFYYADTVKGRFTISRDNPKNTLFLQMTSLRSEDTAIYYCARSTTVLDYWGQGTTLTVSS
VL: DIVLTQTPSSMYAFLGERVTIICKASQDINNYLNWVQQKPGKAPKTLIYHADRLADGVPSRFSGSGSGQDYSLTISSLEYEDMGIYYCLQYDDFPPFTFGSGTKLEIK
EC50 of antibody dependent cellular cytotoxicity (xCELLigence, T47D targets, human NK cells, E:T 10:1) [10]: 3 pM

IC50 of inhibition of MSP induced ERK phosphorylation (AlphaLISA SureFire p-ERK, T47D cells) [10]: 14.9 nM
B6: Narnatumab (antibody, V domains shown)
VH: EVQLVESGGGLVQPGGSLRLSCAASGFTFSSYLMTWVRQAPGKGLEWVANIKQDGSEKYYVDSVKGRFTISRDNAKNSLNLQMNSLRAEDTAVYYCTRDGYSSGRHYGMDVWGQGTTVIVSS
VL: EIVLTQSPATLSLSPGERATLSCRASQSVSRYLAWYQQKPGQAPRLLIYDASNRATGIPARFSGSGSGTDFTLTISSLEPEDFAVYYCQQRSNWPRTFGQGTKVEIK

Kd [12]: 13.4 nM | kon [13]: 270000 M⁻¹ s⁻¹ | Kd [3]: 13.4 nM
B7: 3F6 (antibody, V domains shown)
VH: EVKLEESGPGLVKPSQSLSLTCSVTGYSITSGYYWNWIRQFPGNKLEWMGFMSYDGSNNYNPSLKNRISITRDTSKNQFFLKLNSVTSEDTATYYCSRALAYYGNFDYWGQGTTLTVSS
VL: DIVLTQTPSSLSASLGDRVTISCSASQDISNYLNWYQQKPDGIVKLLIYYTSSLHSGVPSRFSGSGSGTDFSLTISNLEPEDIATYYCQQYNKLPWTFGGGTKLEIK
notes: Mouse monoclonal antibody from a hybridoma; kappa light chain; also called anti-RON antibody 3F6

koff [1]: 0.00228 s⁻¹ | kon [14]: 266000 M⁻¹ s⁻¹ | Kd [15]: 8.57 nM | Kd [3]: 8.6 nM
B8: 6A9 (antibody, V domains shown)
VH: EVKLEESGPGLLKPSQSLSLTCTVTGSSITSDYAWNWIRQFPGNKLEWMGYIGYSVGTSHNPSLKGRISITRDTSKNQFFLHLNSVTTEDTAIYYCARRPLYFYYAMDFWGQGTSVTVSS
VL: DIVLTQSPSSLSASLGDRVTITCRASQDISKYLNWYQQKPDGTVKLLIYYTSTLHSGVPSRFSGSGSGTDFSLTITNLEQEDIATYFCQQGNTLPRTFGGGTKLEIK
notes: Mouse monoclonal antibody from a hybridoma; kappa light chain; also called Antibody 6A9; anti-RON antibody 6A9
